Where a chain is given by its changes, count along the chain named.
B1: Human recombinant granulin-epithelin precursor (rGEP) (natural protein, UniProt P28799 14-593, looked up)
chain: LVAGTRCPDGQFCPVACCLDPGGASYSCCRPLLDKWPTTLSRHLGGPCQVDAHCSAGHSCIFTVSGTSSCCPFPEAVACGDGHHCCPRGFHCSADGRSCFQRSGNNSVGAIQCPDSQFECPDFSTCCVMVDGSWGCCPMPQASCCEDRVHCCPHGAFCDLVHTRCITPTGTHPLAKKLPAQRTNRAVALSSSVMCPDARSRCPDGSTCCELPSGKYGCCPMPNATCCSDHLHCCPQDTVCDLIQSKCLSKENATTDLLTKLPAHTVGDVKCDMEVSCPDGYTCCRLQSGAWGCCPFTQAVCCEDHIHCCPAGFTCDTQKGTCEQGPHQVPWMEKAPAHLSLPDPQALKRDVPCDNVSSCPSSDTCCQLTSGEWGCCPIPEAVCCSDHQHCCPQGYTCVAEGQCQRGSEIVAGLEKMPARRASLSHPRDIGCDQHTSCPVGQTCCPSLGGSWACCQLPHAVCCEDRQHCCPAGYTCNVKARSCEKEVVSAQPATFLARSPHVGVKDVECGEGHFCHDNQTCCRDNRQGWACCPYRQGVCCADRRHCCPAGFRCAARGTKCLRREAPRWDAPLRDPALRQLL
modifications: N-glycan (removed by PNGase F only for the gel analysis)
B2: rGEP-3A (rGEP with alanine mutations at RRH(555-557)) (natural protein, human, UniProt P28799 14-593, looked up)
chain: B1 chain with R542A, R543A, H544A

Target: the molecule itself
Experiment: cross-linking

| Protein | binding result |
| --- | --- |
| B1 | binds |
| B2 | binds |

From PMC4216055 (Carcinogenesis, 2014)
